{"source": "paper PMC5365251", "about": "(2017)", "target": "T1, LAIR-1 ITIM phosphopeptide (PEG28-ITIM) (Mus musculus)", "T1 chain": "{Biotin-PEG28′}-DLQEVT[pY]IQLDHH", "assay": "SPR", "note": "Non-standard residues stand in square brackets, D forms with d. Primed or numbered codes have the meaning given here. No end group written: not given here. *: point of attachment. PEG28′ = (PEG)28 spacer, 28 polyethylene glycol repeats; Biotin = O=C1N[C@H]2[C@H](CS[C@H]2CCCCC(=O)*)N1; pY = N[C@@H](Cc1ccc(OP(=O)(O)O)cc1)C(=O)O"}
{"binder": "SHP-1 (protein) not shown", "values": [{"measurement": "Kd", "result": 9.38, "unit": "µM"}]}
